Data set [1] deals with T1, GST-BAD (GST-tagged shorter murine BAD).
T1 sequence: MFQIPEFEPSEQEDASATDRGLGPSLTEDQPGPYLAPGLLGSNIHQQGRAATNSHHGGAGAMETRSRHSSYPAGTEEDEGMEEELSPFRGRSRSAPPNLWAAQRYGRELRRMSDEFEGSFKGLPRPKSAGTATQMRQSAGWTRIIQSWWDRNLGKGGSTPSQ

Data set [2] concerns T2, Full-length BAD (wildtype), in vitro translated, 35S-methionine labelled, buffer control.
T2 sequence: T1 sequence

In data set [3] the test system is GST-BAD S112A/S136A/S155A.
For data set [4], the system named is GST-BAD S112A [GST: P08515].

In the case of “PKA (cAMP-dependent protein kinase), catalytic subunit from bovine heart”, the “in vitro phosphorylation (32P incorporation, autoradiography)” value in data set [1] was “the shorter murine BAD, and BAD mutants containing mutations at the serine at a position corresponding to Ser112 and/or Ser136, were good in vitro substrates for PKA”; in the data set on GST-BAD S112A/S136A it was “the shorter murine BAD, and BAD mutants containing mutations at the serine at a position corresponding to Ser112 and/or Ser136, were good in vitro substrates for PKA”; in data set [3], “abolished phosphorylation of the triple mutant GST-BAD S112A/S135A/S155A”; in data set [4], “the shorter murine BAD, and BAD mutants containing mutations at the serine at a position corresponding to Ser112 and/or Ser136, were good in vitro substrates for PKA”; in the data set on GST-BAD S155A, “dramatically reduced the phosphorylation of the single mutant GST-BAD S155A”; with GST-BAD S136A, “the shorter murine BAD, and BAD mutants containing mutations at the serine at a position corresponding to Ser112 and/or Ser136, were good in vitro substrates for PKA”. In data set [2], the “gel-mobility shift after incubation with PKA and ATP” value is listed as “phosphorylation by PKA induced a gel-mobility shift of wild-type BAD”.

These data come from patent publication US7193044.
